Laboratory results as given in the supplement of paper PMC12042874.
± gives the uncertainty stated by the source.

Test: amyloid nucleation score (Sup35N fusion, yeast selection) (log enrichment); library NNK1; higher = more nucleation; inactive = no reads after selection
In short: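 Sup35N fusions to peptides of 20 random codons were expressed in psi-negative yeast, induced 24 hours with 100 μM copper sulfate, and grown 7 days at 30°C on medium lacking adenine and uracil. Input and output plasmid inserts were sequenced by Illumina. The nucleation score is the DiMSum log enrichment of output over input reads, centred on the mode score of non-aggregating sequences. Sequences with under 100 input reads were excluded.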

Substance	amyloid nucleation score
STASQWQCHD	0.461 ± 0.41
IHSAYLNAQRKVWATAKFKW	-0.639 ± 0.35
LILEHNFWVRISYELVPCFW	1.15 ± 0.3
PCLSDMRLTSAEKGFV	0.455 ± 0.69
YCGGY	2.9 ± 0.087
GLGVIVVCPVCGSKGVCGKW	-0.914 ± 1.4
RWFDYDESESVKSVHLNLVR	-1.37 ± 0.89
RYHTVYGIYGRLWGWFMKFD	-0.159 ± 0.33
IQAMGGRMSRAV	-0.073 ± 0.77
SYDISYDFWVNLVAGRLTSM	1.24 ± 0.6
VFRWRNKLRNNLCRGKYYWT	2.08 ± 0.43
VCVGFIGDVIRLERSANSVL	-0.049 ± 0.3
NIEVYDFYNINSMYNV	4.54 ± 0.079
LMPPSG	0.072 ± 0.69
PHAHDTWYGYA	-1.13 ± 2.4
IWRTLWMWSVGTSTNPVHSL	-0.088 ± 0.49
FLCEAFDQGNLVIIDP	-0.502 ± 0.46
LSTPYHQWLLAGRSRWASRK	0.609 ± 0.49
AVELI	-0.436 ± 0.34
VDVMRVVLNLNCSRTSVIYM	5.938 ± 0.048
LFTTWMSRGDIVSYNFFL	7.681 ± 0.049
CSLNLNCVS	3.76 ± 0.13

Substance	amyloid nucleation score
GIVCYKCSVDFLLSWLSVVF	-0.092 ± 0.31
STVLQWIIGRPLYARDSLAS	-0.561 ± 0.6
GRDSIRCLNTTEASKLYGGL	0.609 ± 0.64
ALTRS	-0.074 ± 0.49
TVRRVGISWNWYIKTLYGSD	-1.12 ± 0.88
ETAEMIAVPDRAHF	1.05 ± 0.57
TLSGVYTFCMFLVWVDSASG	0.843 ± 0.62
TFEYDT	0.332 ± 0.61
LILFVGIYTLHYYGFNRRYS	0.272 ± 0.69
AILNRLLSLPSFPVPSSDSQ	0.466 ± 1.4
YILPEAEHSKGC	0.803 ± 0.63
SIAYPRNIELRWDEIGGDML	0.178 ± 0.54
ASSVHPRYFLNMTSSGVRKS	inactive
EPFETQEVMSLNMCSNQMVF	0.333 ± 0.27
GVDRVQCVFLSRVEWLGTPG	0.198 ± 0.67
THCCSRYTPERVC	0.47 ± 0.4
SSGFKSAPFSFLRLFLHISR	-1.47 ± 2.4
AISVGVFRVWC	3.53 ± 0.09
WHSMKMCF	0.115 ± 0.45
RVLATKRRLQKRLHESVLLA	0.34 ± 1.1
NSSPNKCFAGSQGSFISFWD	-0.599 ± 0.62
WVNVTRVNGRDEGAPSIRNK	-0.787 ± 0.4

Substance	amyloid nucleation score
TCVGFSGVGKGNSSIKVKEA	0.351 ± 0.42
NGITLLGAVAFTVFLLYPRT	-0.215 ± 0.41
WSFVYMENVIARYEVSVG	0.296 ± 0.25
LVPVWARLR	-0.686 ± 0.65
LYWSQIEVVNPQTTEGLNRD	-0.528 ± 0.61
RWCLSTRKFSWR	0.305 ± 0.42
FLNMASIFNFLHTNRF	0.054 ± 1.2
KVLMTAGFYVVLRALKHRTK	1.51 ± 0.34
KWDKVALYFDQVQITELCIY	4.21 ± 0.091
LGFVDISGSYEVLGGYPSLR	0.031 ± 1.2
PTWSWWGSWHLGSMPGDNRR	0.237 ± 0.78
MINVYK	4.33 ± 0.073
CCAISMFFELHNLHVTVMGS	5.54 ± 0.057
GASRVTNYRELLMASANHDG	-0.413 ± 0.45
QVRLKEFLYSLKCDVRYGST	inactive
FTLYYFLSC	0.406 ± 0.56
SIRSFMIVL	3.49 ± 0.13
EFSLGSPIKWTNHGLVIKGM	2.71 ± 0.13
FLVSCYPWVE	0.248 ± 0.71
TVTYLLCYYDSALYRCATGL	5.553 ± 0.052
LDEFSTSISITEWSSKL	-0.261 ± 0.3
FSNNLHLWAITSVLNIQTSN	6.245 ± 0.053

Substance	amyloid nucleation score
RNQVRDSRVISGPNFSSMKK	-0.51 ± 0.71
NKKESGWY	-0.387 ± 0.97
INNGIQ	-0.047 ± 0.96
GFSNLNSYD	-0.55 ± 0.3
HVSAWWLTSNV	-0.205 ± 0.37
AALVCPRFLTSKANFVPSKG	inactive
SWWPDGLNEMSG	1.11 ± 0.74
FLWVTWYFSTVFYVNWALE	0.505 ± 0.89
VEIPHKKWNYVSHLLLSIHG	0.307 ± 0.3
SSSSYNSR	0.97 ± 0.62
YRKRYDWWTVEAVLASVFGS	1.18 ± 0.57
AYVASFTSIRCRAHHAPLSK	-0.366 ± 0.3
YKVSKMNRRDTNGNLVNRRV	-0.211 ± 1.2
FSNDRCGFVAR	0.149 ± 0.26
ILFVG	-0.462 ± 0.42
LLRVVKHCLCWNRYNDSDAG	1.05 ± 0.34
PMNNIVFYGGYLISAFRVRL	6.46 ± 0.089
VLDGVNNNILLCLISRWGVL	4.46 ± 0.079
AICWPVILSTDLTQTYLAWT	-0.247 ± 0.3
PNRSLCTVNMCIYVETGFMV	inactive
AGIQIGWVIHSLCSSELRLS	-0.875 ± 0.69
